# US20230039401A1, “COMPOSITIONS AND METHODS FOR TREATING NRP2-ASSOCIATED DISEASES” (aTyr Pharma, Inc., priority 2018, published 2023)
# “Also recorded” adds a separate entry of the source.
# B1: VEGF-C: commercial NRP2 ligand protein (R&D Systems) (protein)
# chain: TEETIKFAAAHYNTEILKSIDNEWRKTQCMPREVCIDVGKEFGVATNTFFKPPCVSVYRCGGCCNSEGLQCMNTSTSYLSKTLFEITVPLSQGPKPVTISFANHTSCRCMSKLDVYRQVHSIIRR
# B2: VEGF-A145: commercial protein (R&D Systems #7626-VE-CF) (protein)
# chain: APMAEGGGQNHHEVVKFMDVYQRSYCHPIETLVDIFQEYPDEIEYIFKPSCVPLMRCGGCCNDEGLECVPTEESNITMQIMRIKPHQGQHIGEMSFLQHNKCECRPKKDRARQEKKSVRGKGKGQKRKRKKSRYKSWSVCDKPRR
# B3: mouse SEMA3F: commercial protein (R&D Systems #3237-S3) (protein)
# chain: ATPIQDQLPATPRVRLSFKELKATGTAHFFNFLLNTTDYRILLKDEDHDRMYVGSKDYVLSLDLHDINREPLIIHWAASPQRIEECILSGKDGNGECGNFVRLIQPWNRTHLYVCGTGAYNPMCTYVNRGRRAQALPWTQMQVVRGRGSRATDGADRPTPTAPRQDYIFYLEPEKLESGKGKCPYDPKLDTASALINEELYAGVYIDFMGTDAAIFRTLGKQTAMRTDQYNSRWLNDPSFIHAELIPDSAERNDDKLYFFFRERSAEAPQNPAVYARIGRICLNDDGGHCCLVNKWSTFLKARLVCSVPGEDGIETHFDELQDVFVQQTQDVRNPVIYAVFTSSGSVFRGSAVCVYSMADIRMVFNGPFAHKEGPNYQWMPFSGKMPYPRPGTCPGGTFTPSMKSTKDYPDEVINFMRTHPLMYQAVYPLQRRPLVVRTGAPYRLTTVAVDQVDAADGRYEVLFLGTDRGTVQKVIVLPKDDQEVEELMLEEVEVFKEPAPVKTMTISSKRQQLYVASAVGVTHLSLHRCQAYGAACADCCLARDPYCAWDGQACSRYTASSKRRSRRQDVRHGNPIRQCRGFNSNANKNAVESVQYGVAGSAAFLECQPRSPQATVKWLFQRDPSDRRREIRAEDRFLRTEQGLLLRALQLGDRGLYSCTATENNFKHIVTRVQLHVLGRDAVHAALFPPLAVSVPPPPGTGPPTPPYQELAQLLAQPEVGLIHQYCQGYWRHVPPRPREAPGALRPPELQDQKKPRNRRHHPPDT
# modifications: left off: a dimerising Fc or GST
# B4: SEMA3C: commercial protein (R&D Systems #5570-S3) (protein)
# chain: GSSQPQARVYLTFDELRETKTSEYFSLSHHPLDYRILLMDEDQDRIYVGSKDHILSLNINNISQEALSVFWPASTIKVEECKMAGKDPTHGCGNFVRVIQTFNRTHLYVCGSGAFSPVCTYLNRGRRSEDQVFMIDSKCESGKGRCSFNPNVNTVSVMINEELFSGMYIDFMGTDAAIFRSLTKRNAVRTDQHNSKWLSEPMFVDAHVIPDGTDPNDAKVYFFFKEKLTDNNRSTKQIHSMIARICPNDTGGLRSLVNKWTTFLKARLVCSVTDEDGPETHFDELEDVFLLETDNPRTTLVYGIFTTSSSVFKGSAVCVYHLSDIQTVFNGPFAHKEGPNHQLISYQGRIPYPRPGTCPGGAFTPNMRTTKEFPDDVVTFIRNHPLMYNSIYPIHKRPLIVRIGTDYKYTKIAVDRVNAADGRYHVLFLGTDRGTVQKVVVLPTNNSVSGELILEELEVFKNHAPITTMKISSKKQQLYVSSNEGVSQVSLHRCHIYGTACADCCLARDPYCAWDGHSCSRFYPTGKRRSRRQDVRHGNPLTQCRGFNLKAYRNAAEIVQYGVKNNTTFLECAPKSPQASIKWLLQKDKDRRKEVKLNERIIATSQGLLIRSVQGSDQGLYHCIATENSFKQTIAKINFKVLDSEMVAVVTDKWSPWTWASSVRALPFHPKDIMGAFSHSEMQMINQYCKDTRQQHQQGDESQKMRGDYGKLKALINS
# modifications: left off: a dimerising Fc or GST
# B5: VEGF-A121: commercial protein (Peprotech #100-20A) (protein)
# chain: APMAEGGGQNHHEVVKFMDVYQRSYCHPIETLVDIFQEYPDEIEYIFKPSCVPLMRCGGCCNDEGLECVPTEESNITMQIMRIKPHQGQHIGEMSFLQHNKCECRPKKDRARQEKCDKPRR
# B6: PlGf-2/Heparin (protein)
# chain: LPAVPPQQWALSAGNGSSEVEVVPFQEVWGRSYCRALERLVDVVSEYPSEVEHMFSPSCVSLLRCTGCCGDENLHCVPVETANVTMQLLKIRSGDRPSYVELTFSQHVRCECRPLREKMKPERRRPKGRGKRRREKQRPTDCHLCGDAVPRR
# Target: T1, NRP2:Fc-HRS(2-60) interaction (Homo sapiens, UniProt O60462)
# T1 construct: Fc (C); purchased R&D Systems 2215-N2
# Test: SPR competition of known NRP2 ligands with the NRP2:Fc-HRS(2-60) interaction
# Type: binding
# Conditions: NRP2 in the presence of the ligand over immobilized Fc-HRS(2-60)
# Description: (§1) Protein-Protein Interaction studies. […] SPR experiments were conducted on a Bio-Rad ProteOn XPR36 Protein Interaction Array instrument. Proteins were immobilized on different channels of ProteOn GLC sensor chips through amine coupling. Analyte proteins were flowed over the immobilized proteins. The sensor chip surface was regenerated between each analyte run to remove interacting proteins. Data was double referenced against an interspot (untreated chip surface) and a blank surface (activated and deactivated for amine coupling).
# Studies were performed to confirm the binding specificity of Neuropilin 2 (NRP2) to Fc-HRS(2-60) using orthologous methods to those used in the large scale Retrogenix screening (Example 1). In a series of experiments, Fc-HRS(2-60) and related proteins were immobilized on SPR chips, and NRP2 and related proteins were flowed as analytes. Upon confirmation of the NRP2:Fc-HRS(2-60) interaction, the dependence on divalent cations was tested as NRP2 is known to have Ca^2+ binding sites. The effects of previously characterized NRP2 ligands on the NRP2: Fc-HRS(2-60) interaction was also tested to determine if these known ligands have competitive effects on the Fc-HRS(2-60) interaction.
# (§2) A subset of the known ligands of NRP2 appears to compete binding of Fc-HRS(2-60) to NRP2.
row,effect of ligand on binding of NRP2 to Fc-HRS(2-60) (SPR),Molecule
1,reduced or ablated,B1
2,unaffected,B2
3,do not affect,B3
4,do not affect,B4
5,unaffected,B5

# Same assay, conditions: SPR, NRP2 binding to immobilized Fc-HRS(2-60) in presence of ligand
row,Competes with Fc-HRS(2-60) for NRP2 binding,Molecule
1,Yes,B6
2,Yes,B1
3,No,B2
4,No,B3
5,No,B4
6,No,B5

# Target: T2, NRP2 (Homo sapiens, UniProt O60462)
# T2 construct: Fc (C); purchased R&D Systems 2215-N2
# Test: SPR binding of known ligands to NRP2
# Conditions: applicant's system
# Description: as §1, §2
row,binding of ligand to NRP2,Molecule
1,does not bind NRP2 in our system,B2
2,do bind,B3
3,do bind,B4
4,does not bind,B5

# Same assay, conditions: known NRP2 ligands
row,Binding to NRP2 observed by SPR,Molecule
1,Yes,B1
2,No,B2
3,Yes,B3
4,Yes,B4
5,No,B5

# Target: T3, cell-expressed NRP2 (NRP2a-GFP fusion protein on HEK293T cells) (Homo sapiens, UniProt O60462)
# T3 construct: host or cells: HEK293T
# Test: Immunofluorescence binding of Fc-HRS (2-60) to HEK293T cells overexpressing NRP2v2-GFP
# Conditions: 175 nM Fc-HRS (2-60)/anti-Fc-PE; pre-incubation with the test agent
# Description: Reagents: • PE anti-human IgG Fc Antibody, clone HP6017, Biolegend cat 409304 • Mouse Anti-HRS monoclonal antibody (1-96) Clone 1C8, Abnova cat H00003035-M01 • Mouse IgG2a, Isotype control antibody (MOPC-173), Biolegend cat 400223 • Recombinant Human VEGF-C Protein, R&D Systems, cat 2179-VC-025/CF • Formaldehyde, 16%, methanol free, Ultra Pure, Polysciences, cat 18814-10 • Hoechst 33342, Trihydrochloride, Trihydrate, ThermoFisher Scientific, cat H1399 • Fc-HRS (2-60) was prepared as described in PCT application PCT/US2014/029699 • Gibco DMEM, High Glucose, ThermoFisher Scientific, cat 11965092 • PolyJet™ In Vitro DNA Transfection Reagent, SignaGen, cat SL100688 • Neuropilin 2 (NRP2) (NM_003872) Human ORF Clone, Origene, cat RG220706 • Collagen Coating Solution, Cell Applications Cat 125-100 • 1×PBS containing 1% BSA, 0.9 mM CaCl2 and 20 mM glucose • Binding buffer containing 1% normal mouse IgG (sigma cat 18765) and 2.5% (Human Fc Receptor Binding Inhibitor, ebioscience 14-9161-73).
# Cell culture and transfection. […]
# Immunofluorescence assays on cultured cells. Binding and quantitation of Fc-HRS (2-60) to cell-expressed NRP2 was achieved using immunofluorescence microscopy. […] The Hoechst stain was replaced with 1×PBS and subsequently read on an IN Cell Analyzer 2200. 20× images were acquired and analyzed using In Cell Analyzer 1000 Workstation software. […]
row,Molecule,inhibition of Fc-HRS (2-60) binding to cells expressing NRP2a-GFP
1,B1,binding inhibition; also recorded: direct competition
